Assay results: publication PMC2185550
Values joined by “and” are separate entries in the source; they are usually repeats but may differ in a detail not shown here. Equal values may be shown once.

Assays:
[1] = molecular target: CREB-binding protein (CBP) (human (endogenous in HEp-2)) (UniProt Q92793); assay: co-IP
[2] = molecular target: p300 (human (endogenous in HEp-2)) (UniProt Q09472); assay: co-IP
Sequence of UniProt Q09472 (Q09472 whole entry): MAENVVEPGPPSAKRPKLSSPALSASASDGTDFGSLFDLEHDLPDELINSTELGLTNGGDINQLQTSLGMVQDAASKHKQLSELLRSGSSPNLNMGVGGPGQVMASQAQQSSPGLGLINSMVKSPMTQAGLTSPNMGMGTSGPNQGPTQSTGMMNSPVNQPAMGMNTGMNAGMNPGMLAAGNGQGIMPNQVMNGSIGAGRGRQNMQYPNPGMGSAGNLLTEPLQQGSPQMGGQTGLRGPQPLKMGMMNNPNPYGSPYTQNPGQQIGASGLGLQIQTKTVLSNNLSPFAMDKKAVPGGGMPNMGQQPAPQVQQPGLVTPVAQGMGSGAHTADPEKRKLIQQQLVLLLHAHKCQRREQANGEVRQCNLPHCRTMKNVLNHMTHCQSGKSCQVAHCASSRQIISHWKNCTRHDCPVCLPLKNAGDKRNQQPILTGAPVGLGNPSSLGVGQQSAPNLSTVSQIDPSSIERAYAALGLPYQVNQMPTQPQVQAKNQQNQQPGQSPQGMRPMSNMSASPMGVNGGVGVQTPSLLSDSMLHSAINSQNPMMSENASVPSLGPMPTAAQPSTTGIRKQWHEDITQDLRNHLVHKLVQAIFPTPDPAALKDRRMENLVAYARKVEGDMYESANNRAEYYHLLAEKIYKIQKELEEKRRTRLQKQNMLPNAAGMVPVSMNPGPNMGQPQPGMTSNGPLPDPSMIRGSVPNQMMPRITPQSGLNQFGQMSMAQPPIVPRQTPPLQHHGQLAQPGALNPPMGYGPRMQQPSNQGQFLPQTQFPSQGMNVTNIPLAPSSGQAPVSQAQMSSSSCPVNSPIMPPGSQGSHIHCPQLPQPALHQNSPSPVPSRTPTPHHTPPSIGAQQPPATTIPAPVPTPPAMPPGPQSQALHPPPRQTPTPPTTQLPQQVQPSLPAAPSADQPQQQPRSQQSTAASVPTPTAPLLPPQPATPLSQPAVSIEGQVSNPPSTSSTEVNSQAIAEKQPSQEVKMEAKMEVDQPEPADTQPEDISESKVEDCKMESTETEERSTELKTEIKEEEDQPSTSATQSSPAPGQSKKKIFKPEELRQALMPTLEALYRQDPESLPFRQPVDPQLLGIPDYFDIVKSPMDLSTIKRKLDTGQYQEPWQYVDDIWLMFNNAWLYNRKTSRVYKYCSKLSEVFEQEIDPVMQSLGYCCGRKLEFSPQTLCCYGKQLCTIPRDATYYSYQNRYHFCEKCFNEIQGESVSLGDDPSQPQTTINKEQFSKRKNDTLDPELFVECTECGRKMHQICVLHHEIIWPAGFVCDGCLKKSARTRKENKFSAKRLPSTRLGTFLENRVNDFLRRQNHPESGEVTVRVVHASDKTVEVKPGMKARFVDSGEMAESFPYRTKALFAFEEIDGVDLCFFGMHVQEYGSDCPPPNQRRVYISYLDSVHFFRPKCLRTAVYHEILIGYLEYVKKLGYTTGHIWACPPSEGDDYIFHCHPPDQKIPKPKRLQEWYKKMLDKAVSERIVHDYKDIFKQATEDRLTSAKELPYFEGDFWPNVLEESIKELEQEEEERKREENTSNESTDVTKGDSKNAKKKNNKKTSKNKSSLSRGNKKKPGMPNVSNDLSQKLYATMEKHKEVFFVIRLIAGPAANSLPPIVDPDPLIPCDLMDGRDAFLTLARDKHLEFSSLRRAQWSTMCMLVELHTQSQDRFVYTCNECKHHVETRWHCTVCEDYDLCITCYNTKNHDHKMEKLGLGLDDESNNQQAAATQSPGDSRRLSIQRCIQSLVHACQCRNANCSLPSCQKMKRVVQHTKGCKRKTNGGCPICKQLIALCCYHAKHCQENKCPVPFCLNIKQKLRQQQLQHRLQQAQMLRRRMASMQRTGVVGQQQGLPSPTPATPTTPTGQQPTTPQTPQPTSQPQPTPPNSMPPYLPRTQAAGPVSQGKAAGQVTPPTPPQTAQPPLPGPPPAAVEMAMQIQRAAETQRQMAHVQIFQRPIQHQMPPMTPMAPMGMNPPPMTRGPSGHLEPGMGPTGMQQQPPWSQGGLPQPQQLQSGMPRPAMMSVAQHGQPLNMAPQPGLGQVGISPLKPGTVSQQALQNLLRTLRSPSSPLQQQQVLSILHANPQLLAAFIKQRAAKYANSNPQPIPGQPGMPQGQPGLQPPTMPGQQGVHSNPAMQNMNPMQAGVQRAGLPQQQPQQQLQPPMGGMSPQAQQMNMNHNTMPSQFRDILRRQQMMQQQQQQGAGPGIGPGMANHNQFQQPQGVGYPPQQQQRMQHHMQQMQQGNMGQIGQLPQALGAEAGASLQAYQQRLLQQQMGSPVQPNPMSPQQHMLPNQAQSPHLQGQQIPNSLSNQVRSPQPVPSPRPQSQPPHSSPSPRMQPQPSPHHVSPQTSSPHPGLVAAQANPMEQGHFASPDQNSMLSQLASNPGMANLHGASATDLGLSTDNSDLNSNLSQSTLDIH

Sequence of UniProt Q92793 (Q92793 whole entry): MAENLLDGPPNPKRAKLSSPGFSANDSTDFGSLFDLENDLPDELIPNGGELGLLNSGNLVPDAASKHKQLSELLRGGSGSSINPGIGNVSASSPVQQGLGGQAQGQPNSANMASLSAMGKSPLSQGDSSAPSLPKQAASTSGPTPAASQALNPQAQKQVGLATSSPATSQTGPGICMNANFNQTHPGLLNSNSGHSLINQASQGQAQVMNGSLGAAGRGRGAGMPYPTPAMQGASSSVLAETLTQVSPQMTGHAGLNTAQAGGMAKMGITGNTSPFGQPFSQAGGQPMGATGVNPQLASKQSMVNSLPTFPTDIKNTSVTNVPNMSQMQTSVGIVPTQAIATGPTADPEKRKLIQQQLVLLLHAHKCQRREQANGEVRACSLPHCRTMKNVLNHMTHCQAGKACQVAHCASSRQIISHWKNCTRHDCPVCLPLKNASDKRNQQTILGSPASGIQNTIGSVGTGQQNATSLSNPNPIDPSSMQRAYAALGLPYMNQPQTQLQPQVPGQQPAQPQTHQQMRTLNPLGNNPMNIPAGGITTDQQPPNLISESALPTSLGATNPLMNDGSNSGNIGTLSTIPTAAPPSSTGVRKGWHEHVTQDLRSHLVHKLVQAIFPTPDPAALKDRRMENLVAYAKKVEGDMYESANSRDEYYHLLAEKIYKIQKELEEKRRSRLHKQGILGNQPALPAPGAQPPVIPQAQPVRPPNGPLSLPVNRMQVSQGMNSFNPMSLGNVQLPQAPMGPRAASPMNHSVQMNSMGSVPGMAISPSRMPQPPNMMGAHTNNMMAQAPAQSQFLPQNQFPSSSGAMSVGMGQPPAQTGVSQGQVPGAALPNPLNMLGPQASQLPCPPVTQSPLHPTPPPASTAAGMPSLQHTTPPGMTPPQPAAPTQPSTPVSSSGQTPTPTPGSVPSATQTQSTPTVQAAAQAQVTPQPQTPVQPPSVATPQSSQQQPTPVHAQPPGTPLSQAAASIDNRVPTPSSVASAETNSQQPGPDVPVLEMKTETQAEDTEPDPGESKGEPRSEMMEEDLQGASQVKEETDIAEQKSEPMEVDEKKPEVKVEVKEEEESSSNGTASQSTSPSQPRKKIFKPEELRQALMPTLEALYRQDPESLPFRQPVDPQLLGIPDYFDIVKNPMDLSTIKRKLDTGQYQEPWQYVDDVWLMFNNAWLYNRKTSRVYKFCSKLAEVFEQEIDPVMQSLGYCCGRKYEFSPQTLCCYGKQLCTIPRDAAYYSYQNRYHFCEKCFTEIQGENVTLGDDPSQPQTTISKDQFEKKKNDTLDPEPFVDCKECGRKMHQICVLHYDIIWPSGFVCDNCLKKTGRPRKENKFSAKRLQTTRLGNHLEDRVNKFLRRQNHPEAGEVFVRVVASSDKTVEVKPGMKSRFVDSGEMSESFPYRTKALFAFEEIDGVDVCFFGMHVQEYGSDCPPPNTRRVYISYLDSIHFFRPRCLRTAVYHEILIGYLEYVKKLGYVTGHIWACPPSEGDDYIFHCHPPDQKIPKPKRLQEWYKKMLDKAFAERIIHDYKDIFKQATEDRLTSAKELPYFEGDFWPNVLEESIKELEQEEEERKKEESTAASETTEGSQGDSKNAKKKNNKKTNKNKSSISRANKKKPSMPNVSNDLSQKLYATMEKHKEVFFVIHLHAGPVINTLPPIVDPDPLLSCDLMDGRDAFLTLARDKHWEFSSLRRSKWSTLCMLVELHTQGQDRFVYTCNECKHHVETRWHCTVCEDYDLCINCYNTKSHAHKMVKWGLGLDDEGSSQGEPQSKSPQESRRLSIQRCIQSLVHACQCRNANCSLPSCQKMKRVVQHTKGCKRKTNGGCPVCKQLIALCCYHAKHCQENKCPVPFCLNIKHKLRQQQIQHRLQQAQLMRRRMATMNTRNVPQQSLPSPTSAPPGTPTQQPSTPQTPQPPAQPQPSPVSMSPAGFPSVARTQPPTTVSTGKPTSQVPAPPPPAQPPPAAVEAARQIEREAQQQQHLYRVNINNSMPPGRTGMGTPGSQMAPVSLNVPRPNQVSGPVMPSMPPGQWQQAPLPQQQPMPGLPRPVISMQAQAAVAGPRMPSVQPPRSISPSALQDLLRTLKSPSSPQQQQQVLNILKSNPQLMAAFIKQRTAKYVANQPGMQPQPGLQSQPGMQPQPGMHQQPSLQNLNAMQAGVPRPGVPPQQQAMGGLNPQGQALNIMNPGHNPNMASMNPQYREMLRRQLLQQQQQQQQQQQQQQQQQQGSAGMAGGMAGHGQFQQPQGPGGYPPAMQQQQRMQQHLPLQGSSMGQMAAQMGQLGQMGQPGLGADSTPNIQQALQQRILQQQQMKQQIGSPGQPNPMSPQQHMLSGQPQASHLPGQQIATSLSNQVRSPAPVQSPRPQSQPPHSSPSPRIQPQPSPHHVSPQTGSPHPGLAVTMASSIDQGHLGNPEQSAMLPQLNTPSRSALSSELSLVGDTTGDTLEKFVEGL

percent of pol IIa recovered in the immunoprecipitate [1]: 10% and 20%
percent of pol IIa recovered in the immunoprecipitate [2]: 10% and 20%
Substance: hypophosphorylated RNA polymerase II (pol IIa), largest subunit (from UniProt P24928 1-1970) (natural protein)
